According to patent US20170081400A1 (CEPHALON, published 2017):

T1: human TL1A extracellular domain with N-terminal HIS and FLAG tag (human, UniProt O95150 72-251)
T1 construct: the whole entry is named
T1 sequence: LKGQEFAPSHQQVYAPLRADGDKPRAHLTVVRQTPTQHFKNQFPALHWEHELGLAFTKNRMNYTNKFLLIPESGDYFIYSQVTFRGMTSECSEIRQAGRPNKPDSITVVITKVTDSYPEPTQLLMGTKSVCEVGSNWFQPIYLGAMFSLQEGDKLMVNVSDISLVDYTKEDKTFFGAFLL

T2: human TL1A extracellular domain with N-terminal HIS and FLAG tag (human) (UniProt O95150)
T2 sequence: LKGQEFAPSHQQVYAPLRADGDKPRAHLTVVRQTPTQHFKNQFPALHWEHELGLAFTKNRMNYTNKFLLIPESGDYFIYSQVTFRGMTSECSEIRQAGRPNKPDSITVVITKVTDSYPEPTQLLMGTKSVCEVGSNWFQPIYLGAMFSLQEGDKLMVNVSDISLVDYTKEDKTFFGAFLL

T3: human TL1A extracellular domain with N-terminal HIS and FLAG tag (human, UniProt O95150 72-251)
T3 sequence: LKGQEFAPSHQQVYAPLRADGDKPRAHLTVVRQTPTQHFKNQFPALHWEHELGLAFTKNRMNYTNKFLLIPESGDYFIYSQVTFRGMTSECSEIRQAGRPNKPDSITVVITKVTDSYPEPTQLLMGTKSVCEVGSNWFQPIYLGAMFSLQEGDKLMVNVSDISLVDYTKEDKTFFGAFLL

T4: human TL1A extracellular domain with N-terminal HIS and FLAG tag (human, UniProt O95150 72-251)
T4 construct: whole entry named. ~70 kDa fraction purified by gel filtration
T4 sequence: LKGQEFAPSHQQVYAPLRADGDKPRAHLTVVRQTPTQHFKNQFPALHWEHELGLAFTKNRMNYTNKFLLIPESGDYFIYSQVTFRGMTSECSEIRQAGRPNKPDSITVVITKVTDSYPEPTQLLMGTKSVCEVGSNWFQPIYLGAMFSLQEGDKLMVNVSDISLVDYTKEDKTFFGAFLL


Columns and labels:
[1] = target: T1, human TL1A extracellular domain with …; assay: SPR Run 6, purified Ab captured on Protein A, TL1A 5 ug/mL, timepoint 44
Source text: (§1) 1.5. Antibody expression and antigen binding as determined by SPR. Using a CM5 sensor chip (GE Healthcare) Protein A (Pierce) was coupled to the chip surface using an amine coupling kit (GE Healthcare). Protein A was coupled on flow cell 1 and 2 (or alternatively 3 and 4) using a BIACORE® T200. […] The amount of supernatant or purified protein (as well as the concentration) injected during the capture stage varied between runs and is specified in the header of the Tables 3-11. At the end of injection of the supernatant or purified antibody the change in response units was measured. This value was reported as Capture Level in Tables 3-11. […] The response units were measured prior to the end of the dissociation phase. […] The sensorgrams were double referenced (flow cell 2 is subtracted from flow cell 1 and a buffer blank). As there were a large number of antibody variants to screen, these were screened across different runs (Tables 3-11). […] A summary of the conditions used in each run is below:
(§2) 2.1. […] In some experiment the antibodies were purified using Protein A chromatography (See 1.4) and purified antibodies were used in BIACORE® (GE Healthcare) experiments.

[2] = target: T2, human TL1A extracellular domain with N-terminal HIS and FLAG tag (human); assay: cell-based or functional assay
[3] = target: T1, human TL1A extracellular domain with …; assay: SPR Run 6, purified Ab captured on Protein A, TL1A 5 ug/mL, timepoint 170
Source text: as §1, §2

[4] = target: T3, human TL1A extracellular domain with …; assay: cell-based or functional assay
[5] = target: T4, human TL1A extracellular domain with …; assay: SPR run 3; supernatant on Protein A; TL1A 10 ug/mL; timepoint 59
Source text: as §1, §2

[6] = target: T4, human TL1A extracellular domain with …; assay: SPR run 3; supernatant on Protein A; TL1A 10 ug/mL; timepoint 590
Source text: as §1, §2

[7] = target: T3, human TL1A extracellular domain with …; assay: SPR Run 7, antibody on Protein A, TL1A 5 ug/mL, timepoint 220
Procedure, shortened: (§3)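 Biacore T200 SPR with antibody (supernatant or Protein A-purified) captured on Protein A amine-coupled to a CM5 chip; capture level recorded as response change at end of capture.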

[8] = target: T3, human TL1A extracellular domain with …; assay: SPR Run 7, antibody on Protein A, TL1A 5 ug/mL, timepoint 44
Procedure, shortened: as §3

Binder | TL1A Binding Level (Early) [1] [RU] | Antibody IC50, TL1A induced caspase potency assay in TF-1 cells [2] [µg/mL] | Fold improvement over 320-179, TL1A induced caspase potency assay in TF-1 cells [2] [fold] | TL1A Binding Level (Late) [3] [RU] | Antibody IC50, TL1A induced caspase potency assay in TF-1 cells [4] [µg/mL] | Fold improvement over 320-179, TL1A induced caspase potency assay in TF-1 cells [4] [fold] | TL1A Binding Level (Early) [5] [RU] | TL1A Binding Level (Late) [6] [RU] | other results
320-443 (antibody, human IgG1, name in Kabat numbering, V domains shown, human IgG1, lambda) VH: QVQLVQSGAEVKKPGASVKVSCKASGYTFTSKDINWVRQAPGQGLEWMGWLNPNSGNTGYAQKFQGRVTMTADRSTSTAYMELSSLRSEDTAVYYCAREVPETAAFEYWGQGTLVTVSS VL: QSVLTQPPSVSGAPGQRVTISCTSSSSDIGAGLGVHWYQQLPGTAPKLLIEGYYNRPSGVPDRFSGSKSGTSASLTITGLLPEDEGDYYCQSYDGTLSALFGGGTKLTVLG | 114 | 0.06 | 1 | 103 | – | – | – | – | –
320-278 (antibody, human IgG1, V domains shown) VH: QVQLVQSGAEVKKPGASVKVSCKASGYTFTSYDINWVRQAPGQGLEWMGWLNPNSGNTGYAQKFQGRVTMTADRSTSTAYMELSSLRSEDTAVYYCAREVPETAAFEYWGQGTLVTVSS VL: QSVLTQPPSVSGAPGQRVTISCTSSSSDIGAGQGVHWYQQLPGTAPKLLIEGYYNRPSGVPDRFSGSKSGTSASLTITGLLPEDEGDYYCQSYDGTLSALFGGGTKLTVLG | – | – | – | – | 0.01 | 2 | – | – | –
320-277 (antibody, human IgG1, V domains shown) VH: QVQLVQSGAEVKKPGASVKVSCKASGYTFTSYDINWVRQAPGQGLEWMGWLNPNSGNTGYAQKFQGRVTMTADRSTSTAYMELSSLRSEDTAVYYCAREVPETAAFEYWGQGTLVTVSS VL: QSVLTQPPSVSGAPGQRVTISCTSSSSDIGAGSGVHWYQQLPGTAPKLLIEGYYNRPSGVPDRFSGSKSGTSASLTITGLLPEDEGDYYCQSYDGTLSALFGGGTKLTVLG | – | – | – | – | 0.003 | 3 | – | – | –
320-267 (antibody, human IgG1, V domains shown) VH: QVQLVQSGAEVKKPGASVKVSCKASGYTFTSYDINWVRQAPGQGLEWMGWLNPNSGNTGYAQKFQGRVTMTADRSTSTAYMELSSLRSEDTAVYYCAREVPETAAFEYWGQGTLVTVSS VL: QSVLTQPPSVSGAPGQRVTISCTSSSSDIGAALGVHWYQQLPGTAPKLLIEGYYNRPSGVPDRFSGSKSGTSASLTITGLLPEDEGDYYCQSYDGTLSALFGGGTKLTVLG | – | – | – | – | 0.01 | 4 | – | – | –
320-260 (antibody, human IgG1, name in Kabat numbering, V domains shown, human IgG1, lambda) VH: QVQLVQSGAEVKKPGASVKVSCKASGYTFTSYDINWVRQAPGQGLEWMGWLNPNSGNTGYAQKFQGRVTMTADRSTSTAYMELSSLRSEDTAVYYCAREVPETAAFEYWGQGTLVTVSS VL: QSVLTQPPSVSGAPGQRVTISCTSSSSDIGQGLGVHWYQQLPGTAPKLLIEGYYNRPSGVPDRFSGSKSGTSASLTITGLLPEDEGDYYCQSYDGTLSALFGGGTKLTVLG | – | – | – | – | – | – | 182 | 165 | –
320-477 (antibody, human IgG1, name in Kabat numbering, V domains shown, human IgG1, lambda) VH: QVQLVQSGAEVKKPGASVKVSCKASGYTFTHYDINWVRQAPGQGLEWMGWLNPNSGNTGYAQKFQGRVTMTADRSTSTAYMELSSLRSEDTAVYYCAREVPETAAFEYWGQGTLVTVSS VL: QSVLTQPPSVSGAPGQRVTISCTSSSSDIGAGLGVHWYQQLPGTAPKLLIEGYYNRPSGVPDRFSGSKSGTSASLTITGLLPEDEGDYYCQSYDGTLSALFGGGTKLTVLG | 148 | 0.03 | 1 | 136 | – | – | – | – | –
320-547 (antibody, human IgG1, name in Kabat numbering, V domains shown, full-length human IgG1, lambda) VH: QVQLVQSGAEVKKPGASVKVSCKASGYTFTSYDINWVRQAPGQGLEWMGWLNPNSGYTGYAQKFQGRVTMTADRSTSTAYMELSSLRSEDTAVYYCAREVPETAAFEYWGQGTLVTVSS VL: QSVLTQPPSVSGAPGQRVTISCTSSSSDIGAGLGVHWYQQLPGTAPKLLIEGYYNRPSGVPDRFSGSKSGTSASLTITGLLPEDEGDYYCQSYDGTLSALFGGGTKLTVLG | – | – | – | – | 0.004 | 10 | – | – | TL1A Binding Level (Late) [7]: 75 RU; TL1A Binding Level (Early) [8]: 77 RU
320-445 (antibody, human IgG1, name in Kabat numbering, V domains shown, human IgG1, lambda) VH: QVQLVQSGAEVKKPGASVKVSCKASGYTFTSWDINWVRQAPGQGLEWMGWLNPNSGNTGYAQKFQGRVTMTADRSTSTAYMELSSLRSEDTAVYYCAREVPETAAFEYWGQGTLVTVSS VL: QSVLTQPPSVSGAPGQRVTISCTSSSSDIGAGLGVHWYQQLPGTAPKLLIEGYYNRPSGVPDRFSGSKSGTSASLTITGLLPEDEGDYYCQSYDGTLSALFGGGTKLTVLG | 116 | 0.03 | 2 | 106 | – | – | – | – | –
320-463 (antibody, human IgG1, name in Kabat numbering, V domains shown, human IgG1, lambda) VH: QVQLVQSGAEVKKPGASVKVSCKASGYTFTSYDIAWVRQAPGQGLEWMGWLNPNSGNTGYAQKFQGRVTMTADRSTSTAYMELSSLRSEDTAVYYCAREVPETAAFEYWGQGTLVTVSS VL: QSVLTQPPSVSGAPGQRVTISCTSSSSDIGAGLGVHWYQQLPGTAPKLLIEGYYNRPSGVPDRFSGSKSGTSASLTITGLLPEDEGDYYCQSYDGTLSALFGGGTKLTVLG | 102 | 0.02 | 3 | 101 | – | – | – | – | –
320-256 (antibody, human IgG1, name in Kabat numbering, V domains shown, human IgG1, lambda) VH: QVQLVQSGAEVKKPGASVKVSCKASGYTFTSYDINWVRQAPGQGLEWMGWLNPNSGNTGYAQKFQGRVTMTADRSTSTAYMELSSLRSEDTAVYYCAREVPETAAFEYWGQGTLVTVSS VL: QSVLTQPPSVSGAPGQRVTISCTSSSSDILAGLGVHWYQQLPGTAPKLLIEGYYNRPSGVPDRFSGSKSGTSASLTITGLLPEDEGDYYCQSYDGTLSALFGGGTKLTVLG | – | – | – | – | – | – | 30 | 10 | –
320-259 (antibody, human IgG1, name in Kabat numbering, V domains shown, human IgG1, lambda) VH: QVQLVQSGAEVKKPGASVKVSCKASGYTFTSYDINWVRQAPGQGLEWMGWLNPNSGNTGYAQKFQGRVTMTADRSTSTAYMELSSLRSEDTAVYYCAREVPETAAFEYWGQGTLVTVSS VL: QSVLTQPPSVSGAPGQRVTISCTSSSSDIGSGLGVHWYQQLPGTAPKLLIEGYYNRPSGVPDRFSGSKSGTSASLTITGLLPEDEGDYYCQSYDGTLSALFGGGTKLTVLG | – | – | – | – | – | – | 194 | 179 | –
320-257 (antibody, human IgG1, name in Kabat numbering, V domains shown, human IgG1, lambda) VH: QVQLVQSGAEVKKPGASVKVSCKASGYTFTSYDINWVRQAPGQGLEWMGWLNPNSGNTGYAQKFQGRVTMTADRSTSTAYMELSSLRSEDTAVYYCAREVPETAAFEYWGQGTLVTVSS VL: QSVLTQPPSVSGAPGQRVTISCTSSSSDIWAGLGVHWYQQLPGTAPKLLIEGYYNRPSGVPDRFSGSKSGTSASLTITGLLPEDEGDYYCQSYDGTLSALFGGGTKLTVLG | – | – | – | – | – | – | 83 | 18 | –
320-464 (antibody, human IgG1, name in Kabat numbering, V domains shown, human IgG1, lambda) VH: QVQLVQSGAEVKKPGASVKVSCKASGYTFTSYDISWVRQAPGQGLEWMGWLNPNSGNTGYAQKFQGRVTMTADRSTSTAYMELSSLRSEDTAVYYCAREVPETAAFEYWGQGTLVTVSS VL: QSVLTQPPSVSGAPGQRVTISCTSSSSDIGAGLGVHWYQQLPGTAPKLLIEGYYNRPSGVPDRFSGSKSGTSASLTITGLLPEDEGDYYCQSYDGTLSALFGGGTKLTVLG | 130 | 0.03 | 2 | 124 | – | – | – | – | –
